Each block holds one substance with its values, some of them ahead of it.
What was measured:
Test in all cases: bimolecular fluorescence complementation (BiFC), quantitative imaging of nuclear Venus fluorescence in cells
VN-Impα2 = VN-Impα2 (UniProt P52293); conditions: 18 h post-transfection, mean ± SEM, three independent experiments, parent: est. 1.0, read off a plot
VN-CIC = VN-CIC (UniProt Q96RK0); conditions: 18 h post-transfection; n = 258 (85Q) and 201 (mVS) nuclei; mean ± SEM, three independent experiments; parent: est. 1.0; read off a plot
VC-ataxin-1[85Q] = VC-ataxin-1[85Q] (UniProt P54253); conditions: 18 h post-transfection; n = 155 (wild-type Impα2) and 131 (mDE) nuclei; mean ± SEM, three independent experiments; parent: est. 1.0; read off a plot

UniProt Q96RK0, sequence (Q96RK0 whole entry): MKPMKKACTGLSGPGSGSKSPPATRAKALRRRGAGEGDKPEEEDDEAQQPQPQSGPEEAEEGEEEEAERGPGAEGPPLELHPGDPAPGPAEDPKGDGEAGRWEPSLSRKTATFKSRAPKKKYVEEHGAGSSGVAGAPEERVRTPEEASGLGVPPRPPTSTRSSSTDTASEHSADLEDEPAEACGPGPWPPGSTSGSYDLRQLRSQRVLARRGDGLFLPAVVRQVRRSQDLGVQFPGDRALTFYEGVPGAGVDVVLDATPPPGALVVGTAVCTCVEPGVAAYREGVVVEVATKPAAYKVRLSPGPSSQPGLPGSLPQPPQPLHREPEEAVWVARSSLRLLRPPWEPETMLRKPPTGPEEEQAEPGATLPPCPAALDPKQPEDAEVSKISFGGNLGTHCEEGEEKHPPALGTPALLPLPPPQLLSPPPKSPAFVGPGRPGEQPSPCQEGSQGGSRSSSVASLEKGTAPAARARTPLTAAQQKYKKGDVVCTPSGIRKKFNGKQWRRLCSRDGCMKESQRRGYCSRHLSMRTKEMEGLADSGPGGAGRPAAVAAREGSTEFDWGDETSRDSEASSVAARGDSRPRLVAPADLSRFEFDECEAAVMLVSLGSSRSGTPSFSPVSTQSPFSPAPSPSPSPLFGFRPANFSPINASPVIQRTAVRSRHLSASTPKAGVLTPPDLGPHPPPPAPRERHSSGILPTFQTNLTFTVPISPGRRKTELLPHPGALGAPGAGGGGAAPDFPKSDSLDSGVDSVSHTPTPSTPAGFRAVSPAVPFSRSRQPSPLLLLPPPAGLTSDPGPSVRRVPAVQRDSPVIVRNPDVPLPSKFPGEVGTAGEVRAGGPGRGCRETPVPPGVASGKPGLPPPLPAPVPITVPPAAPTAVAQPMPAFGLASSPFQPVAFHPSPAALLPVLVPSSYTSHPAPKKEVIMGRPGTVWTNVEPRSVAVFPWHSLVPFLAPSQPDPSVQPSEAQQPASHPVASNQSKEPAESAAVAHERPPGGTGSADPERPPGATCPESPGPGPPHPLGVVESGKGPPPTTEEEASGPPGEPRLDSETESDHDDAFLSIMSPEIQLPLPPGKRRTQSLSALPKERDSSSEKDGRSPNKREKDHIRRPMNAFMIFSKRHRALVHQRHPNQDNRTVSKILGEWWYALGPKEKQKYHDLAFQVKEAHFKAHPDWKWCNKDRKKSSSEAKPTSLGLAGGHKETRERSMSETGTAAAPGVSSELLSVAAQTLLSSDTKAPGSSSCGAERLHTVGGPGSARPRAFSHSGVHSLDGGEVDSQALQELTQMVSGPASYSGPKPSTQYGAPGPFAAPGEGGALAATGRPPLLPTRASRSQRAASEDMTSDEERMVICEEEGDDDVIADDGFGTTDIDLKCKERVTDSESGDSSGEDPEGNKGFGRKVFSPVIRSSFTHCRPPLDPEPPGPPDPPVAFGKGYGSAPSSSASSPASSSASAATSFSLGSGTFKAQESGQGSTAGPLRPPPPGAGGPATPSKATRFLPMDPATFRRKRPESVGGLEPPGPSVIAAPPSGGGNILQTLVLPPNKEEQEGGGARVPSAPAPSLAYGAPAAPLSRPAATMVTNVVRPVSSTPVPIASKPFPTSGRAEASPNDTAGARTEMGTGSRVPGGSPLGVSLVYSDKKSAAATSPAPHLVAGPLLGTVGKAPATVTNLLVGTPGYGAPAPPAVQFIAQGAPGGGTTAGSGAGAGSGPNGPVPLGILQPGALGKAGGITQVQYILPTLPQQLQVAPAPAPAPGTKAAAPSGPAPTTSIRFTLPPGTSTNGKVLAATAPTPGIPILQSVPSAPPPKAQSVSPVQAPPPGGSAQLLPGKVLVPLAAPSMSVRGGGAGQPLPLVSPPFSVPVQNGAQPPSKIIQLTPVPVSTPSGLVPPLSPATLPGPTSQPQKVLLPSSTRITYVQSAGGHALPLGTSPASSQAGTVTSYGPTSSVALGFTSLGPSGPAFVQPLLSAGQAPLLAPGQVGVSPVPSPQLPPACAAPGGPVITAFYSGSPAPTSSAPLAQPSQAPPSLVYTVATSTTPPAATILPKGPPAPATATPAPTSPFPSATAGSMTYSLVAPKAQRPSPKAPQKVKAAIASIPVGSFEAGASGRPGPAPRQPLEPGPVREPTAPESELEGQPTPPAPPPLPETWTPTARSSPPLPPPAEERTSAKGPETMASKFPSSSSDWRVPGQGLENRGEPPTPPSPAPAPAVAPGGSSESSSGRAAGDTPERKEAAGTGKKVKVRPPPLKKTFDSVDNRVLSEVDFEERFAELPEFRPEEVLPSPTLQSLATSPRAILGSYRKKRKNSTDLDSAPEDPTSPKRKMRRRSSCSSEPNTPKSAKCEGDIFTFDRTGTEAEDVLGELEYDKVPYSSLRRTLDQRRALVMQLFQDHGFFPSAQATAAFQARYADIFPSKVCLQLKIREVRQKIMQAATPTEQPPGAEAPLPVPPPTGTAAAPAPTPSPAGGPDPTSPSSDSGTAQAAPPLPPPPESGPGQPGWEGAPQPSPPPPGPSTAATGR

ratio to parent (VN-Impα2; n = 155 (85Q) and 172 (K772T) nuclei): 0.55
Substance: VC-ataxin-1[85Q] (from UniProt P54253) K772T

ratio to parent (VN-CIC): 0.47
ratio to parent (VN-Impα2; n = 101 and 101 nuclei): 0.72
Substance: VC-ataxin-1[85Q] (from UniProt P54253) V591A; S602D

Substance: VN-Impα2 (from UniProt P52293) D192K; E396R
ratio to parent (VC-ataxin-1[85Q]): 0.75
